What was measured:
[1] = molecular target: T1, EGFRvIII amino acid residues 15 to 37 with Tyr25 to Ala mutation, yeast-displayed (human, not fully specified); experiment: flow cytometry on yeast displaying the mutated 15-37 fragment
T1 construct: The entry already carries the mutation
T1 peptide: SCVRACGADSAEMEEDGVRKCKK
Description: (§1) Assessment of the binding of anti-EGFRvIII monoclonal antibodies to the fusion proteins expressed on yeast cell surface was done by flow cytometry analysis. Yeast cells were labeled with both the anti-EGFRvIII monoclonal antibody and chicken anti-Myc antibody the latter being used to monitor the level of expression of the fusion protein. Following a wash step, binding of the primary antibodies is probed by a two-color indirect fluorescence labeling using a specific mouse and chicken secondary antibodies for each of the primary antibody respectively.
(§2) To further characterize mAb epitopes within the EGFRvIII 15-37 region, an alanine scan of this region was performed, and modified fragments were expressed at the surface of the yeast. […] The resulting DNAs were expressed at the surface of the yeast and each anti-EGFRvIII mAbs was tested on the corresponding yeast mutant strain by flow cytometry analysis. The original Ala19 and Ala22 were not mutated. Thus, this assay determined the contribution of each amino acid(s) in mAb binding in comparison to the original wild-type fragment (SEQ ID NO:5) which is attributed the value of 100%.

[2] = molecular target: T2, EGFRvIII amino acid residues 15 to 37 with Glu26 to Ala mutation, yeast-displayed (human, not fully specified); experiment: as above
T2 construct: The entry already carries the mutation
T2 peptide: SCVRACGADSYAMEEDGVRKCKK
Description: as §1, §2

[3] = molecular target: T3, EGFRvIII amino acid residues 15 to 37 with Ser15 to Ala mutation, yeast-displayed (human, not fully specified); experiment: flow cytometry on yeast displaying the Ala-mutated 15-37 fragment; normalized to Myc-tag; wild-type fragment = 100%
T3 construct: The entry already carries the mutation
T3 peptide: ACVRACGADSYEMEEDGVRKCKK
Description: as §1, §2

[4] = molecular target: T4, EGFRvIII amino acid residues 15 to 37 with Val17 to Ala mutation, yeast-displayed (human, not fully specified); experiment: as above
T4 construct: The entry already carries the mutation
T4 peptide: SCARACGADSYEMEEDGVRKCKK
Description: as §1, §2

[5] = molecular target: T5, EGFRvIII amino acid residues 15 to 37 with Asp23 to Ala mutation, yeast-displayed (human, not fully specified); experiment: as above
T5 construct: The entry already carries the mutation
T5 peptide: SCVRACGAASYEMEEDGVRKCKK
Description: as §1, §2

[6] = molecular target: T6, EGFRvIII amino acid residues 15 to 37 with Ser24 to Ala mutation, yeast-displayed (human, not fully specified); experiment: as above
T6 construct: The entry already carries the mutation
T6 peptide: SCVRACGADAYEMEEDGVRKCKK
Description: as §1, §2

[7] = molecular target: T7, EGFRvIII amino acid residues 15 to 37 with Met27 to Ala mutation, yeast-displayed (human, not fully specified); experiment: as above
T7 construct: The entry already carries the mutation
T7 peptide: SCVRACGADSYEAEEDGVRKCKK
Description: as §1, §2

[8] = molecular target: T8, EGFRvIII amino acid residues 15 to 37 with Glu28 to Ala mutation, yeast-displayed (human, not fully specified); experiment: as above
T8 construct: The entry already carries the mutation
T8 peptide: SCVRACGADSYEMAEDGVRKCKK
Description: as §1, §2

[9] = molecular target: T9, EGFRvIII amino acid residues 15 to 37 with Glu29 to Ala mutation, yeast-displayed (human, not fully specified); experiment: as above
T9 construct: The entry already carries the mutation
T9 peptide: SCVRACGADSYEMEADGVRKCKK
Description: as §1, §2

[10] = molecular target: T10, EGFRvIII amino acid residues 15 to 37 with Val32 to Ala mutation, yeast-displayed (human, not fully specified); experiment: as above
T10 construct: The entry already carries the mutation
T10 peptide: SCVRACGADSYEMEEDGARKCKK
Description: as §1, §2

[11] = molecular target: T11, EGFRvIII amino acid residues 15 to 37 with Arg33 to Ala mutation, yeast-displayed (human, not fully specified); experiment: as above
T11 construct: The entry already carries the mutation
T11 peptide: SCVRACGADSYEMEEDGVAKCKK
Description: as §1, §2

[12] = molecular target: T12, EGFRvIII amino acid residues 15 to 37 with Lys34 to Ala mutation, yeast-displayed (human, not fully specified); experiment: as above
T12 construct: The entry already carries the mutation
T12 peptide: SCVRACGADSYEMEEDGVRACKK
Description: as §1, §2

[13] = molecular target: T13, EGFRvIII amino acid residues 15 to 37 with Lys36 to Ala mutation, yeast-displayed (human, not fully specified); experiment: as above
T13 construct: The entry already carries the mutation
T13 peptide: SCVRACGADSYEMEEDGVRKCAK
Description: as §1, §2

[14] = molecular target: T4, EGFRvIII amino acid residues 15 to 37 …; experiment: flow cytometry on yeast displaying the mutated 15-37 fragment
Description: as §1, §2

[15] = molecular target: T5, EGFRvIII amino acid residues 15 to 37 …; experiment: as above
Description: as §1, §2

[16] = molecular target: T1, EGFRvIII amino acid residues 15 to 37 …; experiment: flow cytometry on yeast displaying the Ala-mutated 15-37 fragment; normalized to Myc-tag; wild-type fragment = 100%
Description: as §1, §2

[17] = molecular target: T2, EGFRvIII amino acid residues 15 to 37 …; experiment: as above
Description: as §1, §2

[18] = molecular target: T14, EGFRvIII amino acid residues 15 to 37 with Gly31 to Ala mutation, yeast-displayed (human, not fully specified); experiment: as above
T14 construct: The entry already carries the mutation
T14 peptide: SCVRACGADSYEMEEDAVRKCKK
Description: as §1, §2

B1: F269-3D12 anti-EGFRvIII monoclonal antibody (antibody, V domains shown)
VH: EVQLQQSGPELVKPGSSVRISCKASGYTFTDYNMDWVKQSHGKSLEWIGTINPNNGGTSYNQKFKGKATLTVDKSSSTAYMELRSLTSEDSAVYYCARVRQLGLWFAYWGQGTLVTVSA
VL: EIVLTQSPALMAASPGEKVTITCSVSSSISSSNLHWYQQKSETSPKPWIYGTSNLASGVPVRFSGSGSGTSYSLTISSMEAEDAATYYCQQWSSYPLTFGSGTKLEIK
notes: Mouse hybridoma IgG, tested as supernatant or Protein G purified mAb; also called 3D12-2
Question: Does B1 bind [1]?
Answer: Result: no binding

Question: Does B1 bind [2]?
Answer: Result: no binding

Question: What about the “% of binding compared to the wild-type sequence” value (shortened to “% of binding”) [3] of the same binder?
Answer: The value was 90.2%.

Question: And the “% of binding” value [4]?
Answer: The value was 116%.

Question: And the “% of binding” value [5]?
Answer: The value was 62.4%.

Question: What about the “% of binding” value [6] of the same binder?
Answer: The value was 233%.

Question: And the “% of binding” value [7]?
Answer: The value was 75.3%.

Question: What about the “% of binding” value [8] of the same binder?
Answer: The value was 71%.

Question: What about the “% of binding” value [9] of the same binder?
Answer: Its value is 47.7%.

Question: And the “% of binding” value [10]?
Answer: Its value is 93.8%.

Question: And the “% of binding” value [11]?
Answer: Its value is 22.1%.

Question: And the “% of binding” value [12]?
Answer: Its value is 137%.

Question: And the “% of binding” value [13]?
Answer: The value was 95.1%.

B2: F265-5B7 anti-EGFRvIII monoclonal antibody (antibody, V domains shown)
VH: QIQLVQSGPELKKPGETVMISCKASGYSFTNYGMNWVKQAPEKDLKWMGWINTYTGESRYVDEFKGRFAFSLETSVSIVYLKINNLKNEDMATYFCARGPNFDVWGTGTTVTVSS
VL: not shown
notes: Mouse hybridoma IgG, tested as supernatant or Protein G purified mAb; also called 5B7-2
Question: Does B2 bind [14]?
Answer: Result: no binding

Question: Does B2 bind [15]?
Answer: Result: no binding

Question: And the “% of binding” value [3]?
Answer: Its value is 91.6%.

Question: And the “% of binding” value [6]?
Answer: The value was 230%.

Question: And the “% of binding” value [16]?
Answer: Its value is 192%.

Question: What about the “% of binding” value [17] of the same binder?
Answer: The value was 140%.

Question: What about the “% of binding” value [7] of the same binder?
Answer: Its value is 111%.

Question: And the “% of binding” value [8]?
Answer: The value was 78.5%.

Question: And the “% of binding” value [9]?
Answer: Its value is 110%.

Question: And the “% of binding” value [18]?
Answer: Its value is 98.9%.

Question: What about the “% of binding” value [10] of the same binder?
Answer: Its value is 101%.

Question: And the “% of binding” value [11]?
Answer: Its value is 95.8%.

Question: What about the “% of binding” value [12] of the same binder?
Answer: The value was 193%.

Question: And the “% of binding” value [13]?
Answer: Its value is 87.2%.
